Source: US20240408248A1, “GRANZYME B-TARGETING COMPLEX, RADIOPHARMACEUTICAL, PREPARATION METHOD THEREFOR AND USE THEREOF” (priority 2021, published 2024)

Assays:
tumor Granzyme B [1] = target: T1, tumor Granzyme B (Mus musculus, UniProt P04187); assay: PET/CT imaging in MC38 tumor-bearing mice, comparison with radiopharmaceuticals with similar structures; type: in vivo, C57 mice; conditions: 7.4 MBq via tail vein, 0.5 h after injection, compared with the other three comparative radiopharmaceuticals
T1 construct: from tissue; host or cells: MC38 tumors in living C57 mice
T1 sequence (P04187 21-247): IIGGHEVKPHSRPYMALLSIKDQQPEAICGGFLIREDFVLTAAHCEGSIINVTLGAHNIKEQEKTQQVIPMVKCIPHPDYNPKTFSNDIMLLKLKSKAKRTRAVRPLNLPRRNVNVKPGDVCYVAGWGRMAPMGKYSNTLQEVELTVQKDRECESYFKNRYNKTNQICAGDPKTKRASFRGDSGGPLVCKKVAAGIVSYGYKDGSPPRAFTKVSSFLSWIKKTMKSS
Experimental: In order to compare the in vivo nuclear medicine imaging advantages of the Granzyme B-targeting complex of the present invention, three Granzyme B-targeting complexes with similar structures are prepared by a similar synthesis method. All of them were labeled with ^68Ga after DOTA coupling to obtain the corresponding Granzyme B-targeting radioactive compounds. 7.4 MBq of the freshly prepared ^68Ga-labeled complex was taken and injected into female C57 mice bearing MC38 tumors via the tail vein. After injection for 0.5 h, the animals were anesthetized with isoflurane for PET/CT imaging. The result is illustrated in FIG. 11, showing that the ^68Ga-labelled DOTA complex of the present invention had optimal tumor Granzyme B uptake and low normal tissue (e.g. gastrointestinal tract) uptake compared with the other three comparative radiopharmaceuticals.

Granzyme B in 4T1 tumors = target: T2, Granzyme B in 4T1 tumors (Mus musculus, UniProt P04187); design: species or system BALB/c mice; conditions: in vivo
T2 construct: from tissue; host or cells: 4T1 tumors in living BALB/c mice
T2 sequence (P04187 21-247): T1 sequence (P04187 21-247)
Experimental: (§1) MC38 and 4T1 tumor cells were inoculated subcutaneously in the right axilla of C57 and BALB/c mice, respectively, to establish immunotherapy pseudo-progression and true-progression mouse models. 200 μg of the anti-PD-1 antibody and anti-CTLA-4 antibody were injected intraperitoneally for a total of 3 times on days 0, 3 and 6, respectively. […] After injection for 0.5 h, the animals were anesthetized with isoflurane for PET/CT imaging. The changes of the tumor size in MC38 and 4T1 tumor-bearing mice were measured by a vernier caliper.

[2] = target: T3, Granzyme B in MC38 tumors (Mus musculus, UniProt P04187); design: species or system C57 mice; conditions: in vivo
T3 construct: from tissue; host or cells: MC38 tumors in living C57 mice
T3 sequence (P04187 21-247): T1 sequence (P04187 21-247)
Experimental: as §1

tumor Granzyme B [3] = target: T1, tumor Granzyme B; assay: SPECT/CT imaging of tumor Granzyme B in MC38 tumor-bearing mice; type: in vivo, C57 mice; conditions: 18.5 MBq via tail vein, 0.5 h after injection
Experimental: SPECT imaging of tumor Granzyme B with a ^99mTc-labeled HYNIC complex. 18.5 MBq of the freshly prepared ^99mTc-labeled HYNIC complex was taken and injected into female C57 mice bearing MC38 tumors in the right axilla via the tail vein. After injection for 0.5 h, the animals were anesthetized with isoflurane for SPECT/CT imaging.

CC[C@H](C)[C@H](NC(=O)Cc1cccc(CNC(=O)C[C@H](NC(=O)C[C@H](NC(=O)CN2CCN(CC(=O)O)CCN(CC(=O)O)CCN(CC(=O)O)CC2)C(=O)O)C(=O)O)c1)C(=O)N[C@H]1CCc2cccc3c2N(C1=O)[C@H](C(=O)NCc1cn[nH]n1)C3 [^68Ga-labeled DOTA complex, metal not drawn]
normal tissue (e.g. gastrointestinal tract) uptake (tumor Granzyme B [1]): low | tumor uptake on day 6 versus day 0 (Granzyme B in 4T1 tumors): no significant difference | tumor uptake at day 6 versus day 0 [2]: significantly higher than that at day 0

CC[C@H](C)[C@H](NC(=O)Cc1cccc(CNC(=O)C[C@H](NC(=O)C[C@H](NC(=O)c2ccc(NN)nc2)C(=O)O)C(=O)O)c1)C(=O)N[C@H]1CCc2cccc3c2N(C1=O)[C@H](C(=O)NCc1cn[nH]n1)C3 [^99mTc-labeled HYNIC complex, metal not drawn]
uptake value in MC38 tumors (SPECT) (tumor Granzyme B [3]): good uptake value
